The labels stand for the following.
B1: FBXO3 (parent)
chain: FIDTYSDVGRYIDHYAAIKKAWDD
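Also: lentivirally expressed fusions sorted by FACS into six bins by GFP to DsRed ratio, PSI derived from sequencing read proportions per bin multiplied by bin number.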

In this data set the parent is B1. The data set is described as follows: protein stability index of a GFP-peptide fusion (GPS, HEK-293T) (PSI 1-6); higher = more stable. As to conditions: c terminus: a fixed tail appended.
As to FIDTYSDVGRYIDHYHAIKKAWDD [A16H], the protein stability index stood at 2.12.

For FIDTYSDVGRYIDHYCAIKKAWDD [A16C], the protein stability index amounted to 2.08.

With FIDTYSDVGRYIDHYWAIKKAWDD [A16W], the protein stability index amounted to 1.84.

For the variant FIDTYSDVGRYIDHYATIKKAWDD [A17T], the protein stability index amounted to 1.68.

FIDTYSDVGRYIDHYAMIKKAWDD [A17M]: the protein stability index came to 1.24.

For the variant FIDTYSDVGRYIDHYAPIKKAWDD [A17P], the protein stability index worked out at 2.17.

Take FIDTYSDVGRYIDHYAGIKKAWDD [A17G]: the protein stability index stood at 1.84.

For the variant FIDTYSDVGRYIDHYAYIKKAWDD [A17Y], the protein stability index was found to be 2.6.

In the case of FIDTYSDVGRYIDHYAAIKCAWDD [K20C], the protein stability index came out at 2.19.

As for FIDTYSDVGRYIDHYAAIKPAWDD [K20P], the protein stability index is 2.15.

For FIDTYSDVGRYIDHYAAIKKAKDD [W22K], the protein stability index turned out to be 3.

As to FIDTYSDVGRYIDHYAAIKKACDD [W22C], the protein stability index turned out to be 1.95.

As to FIDTYSDVGRYIDHYAAIKKAVDD [W22V], the protein stability index is 1.61.

Take FIDTYSDVGRYIDHYAAIKKAYDD [W22Y]: the protein stability index was 2.3.

Turning to FIDTYSDVCRYIDHYAAIKKAWDD [G9C], the protein stability index came out at 1.65.

Consider FIDTYSDVTRYIDHYAAIKKAWDD [G9T], for which the protein stability index was 1.83.

As for FIDTYSDVPRYIDHYAAIKKAWDD [G9P], the protein stability index turned out to be 1.85.

In the case of FIDTYSDVYRYIDHYAAIKKAWDD [G9Y], the protein stability index amounted to 2.

Turning to FIDTYSDVSRYIDHYAAIKKAWDD [G9S], the protein stability index is 1.91.

With FIDTYSDVLRYIDHYAAIKKAWDD [G9L], the protein stability index turned out to be 2.22.

With FIDTYSDVIRYIDHYAAIKKAWDD [G9I], the protein stability index is 1.75.

With FIDTYSDVDRYIDHYAAIKKAWDD [G9D], the protein stability index amounted to 1.57.

Turning to FIDTYSDVGRQIDHYAAIKKAWDD [Y11Q], the protein stability index was found to be 2.06.

Turning to FIDTYSDVGRTIDHYAAIKKAWDD [Y11T], the protein stability index came to 1.59.

Regarding FIDTYSDVGRFIDHYAAIKKAWDD [Y11F], the protein stability index worked out at 1.89.

Regarding FIDTYSDVGRGIDHYAAIKKAWDD [Y11G], the protein stability index amounted to 1.66.

For FIDTYSDVGRIIDHYAAIKKAWDD [Y11I], the protein stability index was 2.

Take FIDTYSDVGRKIDHYAAIKKAWDD [Y11K]: the protein stability index was found to be 2.06.

In the case of FIDTYSDVGRYIDHYAAIKKAWND [D23N], the protein stability index was 2.29.

Take FIDTYSDVGRYIDHYAAIKKAWQD [D23Q]: the protein stability index came to 1.44.

Turning to FIDTYSDVGRYIDHYAAIKKAWAD [D23A], the protein stability index was determined as 1.74.

FIDTYSDVGRYIDHYAAIKKAWGD [D23G]: the protein stability index came to 1.35.

For FIDTYEDVGRYIDHYAAIKKAWDD [S6E], the protein stability index was 1.62.

With FIDTYQDVGRYIDHYAAIKKAWDD [S6Q], the protein stability index turned out to be 1.89.

Regarding FIDTYNDVGRYIDHYAAIKKAWDD [S6N], the protein stability index stood at 1.83.

With FIDTPSDVGRYIDHYAAIKKAWDD [Y5P], the protein stability index is 3.12.

For FIDTNSDVGRYIDHYAAIKKAWDD [Y5N], the protein stability index turned out to be 2.21.

As to FIDTYSCVGRYIDHYAAIKKAWDD [D7C], the protein stability index was 1.86.

As to FIETYSDVGRYIDHYAAIKKAWDD [D3E], the protein stability index was 2.14.

As for FITTYSDVGRYIDHYAAIKKAWDD [D3T], the protein stability index worked out at 1.62.

For the variant FIPTYSDVGRYIDHYAAIKKAWDD [D3P], the protein stability index came out at 2.01.

For the variant FINTYSDVGRYIDHYAAIKKAWDD [D3N], the protein stability index was 1.74.

For FIQTYSDVGRYIDHYAAIKKAWDD [D3Q], the protein stability index stood at 1.82.

FIDVYSDVGRYIDHYAAIKKAWDD [T4V]: the protein stability index came out at 1.91.

FIDTYSDVGRYIDHGAAIKKAWDD [Y15G]: the protein stability index came to 1.87.

Consider FIDTYSDVGRYIDHWAAIKKAWDD [Y15W], for which the protein stability index worked out at 2.08.

For the variant FIDTYSDVGRYIDHNAAIKKAWDD [Y15N], the protein stability index came to 1.97.

Turning to FIDTYSDVGRYIDHMAAIKKAWDD [Y15M], the protein stability index was 1.55.

In the case of FIDTYSDVGRYIDHFAAIKKAWDD [Y15F], the protein stability index is 2.14.

In the case of FIDTYSDVGRYIDHEAAIKKAWDD [Y15E], the protein stability index came out at 1.94.

On to FIDTYSDVGRYIDRYAAIKKAWDD [H14R], for which the protein stability index was 2.38.

In the case of FIDTYSDVGRYIDPYAAIKKAWDD [H14P], the protein stability index was determined as 2.38.

Regarding FIDTYSDVGRYIDYYAAIKKAWDD [H14Y], the protein stability index was found to be 1.82.

On to FIDTYSDVGRYIDSYAAIKKAWDD [H14S], for which the protein stability index came out at 2.49.

As to FIDTYSDVGRYIDLYAAIKKAWDD [H14L], the protein stability index turned out to be 1.66.

For the variant FIDTYSDVGRYIDVYAAIKKAWDD [H14V], the protein stability index amounted to 2.27.

With FIDTYSDVGRYIVHYAAIKKAWDD [D13V], the protein stability index turned out to be 2.2.

For FIDTYSDVGRYIWHYAAIKKAWDD [D13W], the protein stability index is 2.51.

With FIDTYSDVGRYIPHYAAIKKAWDD [D13P], the protein stability index is 1.83.

As to FIDTYSDVGRYINHYAAIKKAWDD [D13N], the protein stability index came to 2.34.

Consider IIDTYSDVGRYIDHYAAIKKAWDD [F1I], for which the protein stability index was 2.56.

Turning to GIDTYSDVGRYIDHYAAIKKAWDD [F1G], the protein stability index was determined as 3.05.

On to CIDTYSDVGRYIDHYAAIKKAWDD [F1C], for which the protein stability index is 2.87.

With VIDTYSDVGRYIDHYAAIKKAWDD [F1V], the protein stability index was 3.28.

For the variant FFDTYSDVGRYIDHYAAIKKAWDD [I2F], the protein stability index worked out at 2.63.

For the variant FRDTYSDVGRYIDHYAAIKKAWDD [I2R], the protein stability index was found to be 3.03.

Turning to FTDTYSDVGRYIDHYAAIKKAWDD [I2T], the protein stability index turned out to be 2.32.

As to FWDTYSDVGRYIDHYAAIKKAWDD [I2W], the protein stability index came out at 2.45.

Consider FIDTYSDVGRYHDHYAAIKKAWDD [I12H], for which the protein stability index is 1.91.

Turning to FIDTYSDVGRYYDHYAAIKKAWDD [I12Y], the protein stability index came to 1.98.

On to FIDTYSDVGRYADHYAAIKKAWDD [I12A], for which the protein stability index stood at 2.21.

Take FIDTYSDVGRYLDHYAAIKKAWDD [I12L]: the protein stability index was found to be 1.97.

As to FIDTYSDVGRYNDHYAAIKKAWDD [I12N], the protein stability index is 1.78.

Take FIDTYSDVGRYDDHYAAIKKAWDD [I12D]: the protein stability index stood at 1.82.

As to FIDTYSDVGRYIDHYAAIVKAWDD [K19V], the protein stability index amounted to 1.98.

Regarding FIDTYSDVGRYIDHYAAIAKAWDD [K19A], the protein stability index is 1.37.

For the variant FIDTYSDVGRYIDHYAAIKKRWDD [A21R], the protein stability index worked out at 1.96.

Take FIDTYSDVGRYIDHYAAIKKLWDD [A21L]: the protein stability index amounted to 1.72.

For the variant FIDTYSDVGRYIDHYAAIKKQWDD [A21Q], the protein stability index is 1.82.

As for FIDTYSDVGRYIDHYAAHKKAWDD [I18H], the protein stability index was 2.39.

Consider FIDTYSDVGRYIDHYAAMKKAWDD [I18M], for which the protein stability index came to 2.16.

As to FIDTYSDVGRYIDHYAALKKAWDD [I18L], the protein stability index amounted to 2.11.

With FIDTYSDVGRYIDHYAAPKKAWDD [I18P], the protein stability index turned out to be 1.96.

On to FIDTYSDVGRYIDHYAADKKAWDD [I18D], for which the protein stability index stood at 1.7.

For the variant FIDTYSDTGRYIDHYAAIKKAWDD [V8T], the protein stability index is 1.65.

On to FIDTYSDSGRYIDHYAAIKKAWDD [V8S], for which the protein stability index stood at 1.72.

For the variant FIDTYSDPGRYIDHYAAIKKAWDD [V8P], the protein stability index came to 2.72.

As to FIDTYSDVGRYIDHYAAIKKAWDI [D24I], the protein stability index came out at 2.86.

Turning to FIDTYSDVGRYIDHYAAIKKAWDA [D24A], the protein stability index stood at 2.83.

In the case of FIDTYSDVGLYIDHYAAIKKAWDD [R10L], the protein stability index stood at 1.85.

Consider FIDTYSDVGDYIDHYAAIKKAWDD [R10D], for which the protein stability index was found to be 2.32.

For the variant FIDTYSDVGWYIDHYAAIKKAWDD [R10W], the protein stability index stood at 1.46.

On to FIDTYSDVGHYIDHYAAIKKAWDD [R10H], for which the protein stability index was determined as 1.56.

In the case of FIDTYSDVGCYIDHYAAIKKAWDD [R10C], the protein stability index amounted to 1.9.
